How the values were obtained:
[1] = system: TSM of epithelium-denuded trachea; test: CCh-evoked force in trachea with mechanically removed epithelium EP(−); format: cell-based, mouse
Experimental: Histological examination of the structure of the airway and the status of the airway epithelial layer was performed in whole/sectional fresh trachea and as well as trachea cultured overnight with and without 100 nM FIZZ1. To understand the role of airway epithelium in regulating contractility of TSM, we measured the contractile response of tracheal rings after the epithelium was mechanically removed. Briefly, airway epithelial cells were removed by gently rubbing the intraluminal surface with polyethylene tubing (Becton Dickinson & Company, MD USA) connected to a Precision Glide needle (30G1/2) followed by perfusion with 1.0 ml air bubbles and then 1.0 ml K-H solution (re). All of the experimental tracheas were stained with H & E solution (CAT hematoxylin, Edgar Degas Eosin Working Solution, Biocare Medical, Concord, Calif.) and photographed under a light microscope at ×4.0 and ×20 magnification. […]
At the end of each force measurement experiment, tracheas were blotted on a gauze pad and weighted. Results were calculated as milligram of tension per milligram of TSM weight (mg/mg) and expressed as an individual percentage (%) of 10 μM CCh- or 200 μM papaverine-induced tension response in PBS-treated trachea. […]

[2] = system: airway epithelium of cultured trachea; test: Histological examination of tracheal rings and airway epithelium; format: cell-based, mouse; conditions: cultured overnight with FIZZ1 100 nM or LPS 0.1 ng/mL
Experimental: Histological examination of the structure of the airway and the status of the airway epithelial layer was performed in whole/sectional fresh trachea and as well as trachea cultured overnight with and without 100 nM FIZZ1. To understand the role of airway epithelium in regulating contractility of TSM, we measured the contractile response of tracheal rings after the epithelium was mechanically removed. Briefly, airway epithelial cells were removed by gently rubbing the intraluminal surface with polyethylene tubing (Becton Dickinson & Company, MD USA) connected to a Precision Glide needle (30G1/2) followed by perfusion with 1.0 ml air bubbles and then 1.0 ml K-H solution (re). All of the experimental tracheas were stained with H & E solution (CAT hematoxylin, Edgar Degas Eosin Working Solution, Biocare Medical, Concord, Calif.) and photographed under a light microscope at ×4.0 and ×20 magnification. Tracheal morphometric analysis was performed using a computer-based image analysis system consisting of a Nikon Eclipse E800 microscope (Melville, N.Y. USA) with a SPOT RT Slider camera (Diagnostic Instruments, Inc., Sterling Heights, Mich. USA).

[3] = system: mouse tracheal epithelium cells (MTEC); test: MTEC apoptosis, Cell Death Detection ELISAplus; format: cell-based
Experimental: MTEC culture was performed by following the protocol of You et al. (“Growth and differentiation of mouse tracheal epithelial cells: selection of a proliferative population,” Am J Physiol Lung Cell Mol Physiol, 2002, 283:L 1315-1321) with minor modification. Briefly, tracheas were incubated in 1.5 mg/mL pronase (Roche Molecular Biochemicals) for 18 h at 4° C. Cells were treated with 0.5 mg/mL crude pancreatic DNase I (Sigma-Aldrich) on ice for 5 min. After incubation in tissue culture plates for 3-4 h in 5% CO2 at 37° C., nonadherent cells were incubated in a plate coated with type I rat tail collagen (BD Biosciences) in modified BEBM (Lonza, Md. USA) containing 10 μg/ml insulin, 5 μg/ml transferrin, 25 ng/ml epidermal growth factor, 5 μg/ml epinephrine and 30 μg/ml bovine pituitary extract, 0.5 nM Hydrocortisone, 25 ng/ml hEGF, 15 nM Triiodothyronine, 0.25 μg/ml Gentamicin/amphotericin-B and 0.01 μM retinoic acid in 5% CO2 at 37° C. […]
Apoptotic MTEC death was examined using Cell Death Detection ELISAplus (Roche) according to the manufacturer's instructions and calculated as an index of a fold change over a control. […] Quantitation of histone-associated-DNA-fragments in supernatants of MTEC cultures (5×10^4/mL) treated with PBS, 0.1 ng/mL LPS or 100 nM rFIZZ1 was performed at an absorbance of 405-490 nm.

[4] = system: TSM of fresh tracheal rings; test: Force response of fresh tracheas from intranasally challenged mice; format: in vivo, mouse; conditions: intranasal once a day×5 days, 100 nM rFIZZ1 or 0.1 ng/ml LPS; 24 hours after last treatment; PBS 100.00±14.63; N=5
Experimental: For some experiments, ex vivo TSM tensions of fresh tracheal rings and BAL cell counts were measured at 24 hours after the last treatment of mice receiving an intranasal dose of either PBS, 0.1 ng/m: LPS or 100 nM rFIZZ1 (once a day×5 days).
Trachea were supported longitudinally by a plexiglas rod with a stainless steel pin into the base of a double-jacketed, glass organ bath filled with 10 mL of Krebs-Henseleit (K-H) solution (37° C.) of the following composition: 118 mM NaCl; 4.7 mM KCl; 1.2 mM KH2PO4; 11.1 mM Dextrose; 1.2 mM MgSO4; 2.8 mM CaCl2; and 25 mM NaHCO3. The solution was maintained at a pH of 7.40-7.45 and continuously gassed with a mixture of 5% CO2 and […] for the duration of each experiment. […] Initial tensions of TSM were set at approximately 0.5 g and maintained for 1 hour. Agonists were given after a steady state of tension had been reached.
At the end of each force measurement experiment, tracheas were blotted on a gauze pad and weighted. Results were calculated as milligram of tension per milligram of TSM weight (mg/mg) and expressed as an individual percentage (%) of 10 μM CCh- or 200 μM papaverine-induced tension response in PBS-treated trachea. For the control group, CCh (papaverine)-mediated responses were normalized to the mean value of the maximal responses.

B1: rFIZZ1: recombinant FIZZ1 (Leinco Technologies), mouse FIZZ1 protein, resistin-like molecule-α (protein, listed as Mus musculus)
chain: MKTTTCSLLICISLLQLMVPVNTDETIEIIVENKVKELLANIPANYPSTVTKTLSCTSVKTMNRWASCPAGMTATGCACGFACGSWEIQSGDTCNCLCLLV
modifications: (1)..(101) Murine FIZZ1 polypeptide
- EP(−) TSM sensitivity to CCh, LogEC50 ([1]; EP(−)/FIZZ1 100 nM, Mean ± SE, N=8): −0.91 ± 0.08 μM
- maximal tensions (%), CCh stimulation, EP(−) trachea ([1]; denuded epithelium EP(−) with 100 nM FIZZ1, EP(+) 100±6.22): 141.43±6.65%
- smooth muscle layers, histology [2]: clear and histologically intact
- epithelial layer of tracheal rings, histology ([2]; vs PBS): thinner and some of airway epithelium was denuded
- MTEC apoptosis (apoptosis index) ([3]; 100 nM rFIZZ1, all time points, compared to LPS treatment, N=3): significant increased
- start of increase in cell death, time of incubation ([3]; FIZZ1-treated MTEC): 3 h
- Maximal tensions (%) of TSM, CCh-evoked, fresh trachea [4]: 147.78±18.57%

Reference: patent US20090274696A1, “METHODS FOR TREATING INFLAMMATION” (WYETH, priority 2008, published 2009)
